Data on 1 molecule can be found in article PMC4114559, “Pigment Dispersing Factor Regulates Ecdysone Biosynthesis via Bombyx Neuropeptide G Protein Coupled Receptor-B2 in the Prothoracic Glands of Bombyx mori” (PLoS ONE, 2014).

The test system of assay [1] is nvd, nm-g, spo, phm, dib and sad. The conditions noted are these: ref [8]; cited from earlier work. From the text:
Ecdysone is the key regulator of insect growth and development. Ecdysone is synthesized in the PGs and the biosynthesis is intricately regulated by several neuropeptides. To date, four prothoracicotropic peptides (PTTH, FXPRL-amides, insulin and orcokinins) and three prothoracicostatic peptides (PTSP, Bommo-myosuppressin and Bommo-FMRF-amides) have been identified in Bombyx mori. The participation of four cytochrome P450 (CYP) enzymes (CYP307A1, Spook (Spo); CYP306A1, Phantom (Phm); CYP302A1, Disembodied (Dib); CYP315A1, Shadow (Sad)); an oxygenase-like protein, Neverland (Nvd); and a sh ... || Because PDF increased the intracellular cAMP level in PGs, the involvement of PKA in the PDF signaling pathway was expected. […] In mammals, most of the CYP enzymes involved in steroid hormone biosynthesis are transcriptionally regulated. In PTTH- and dbcAMP-induced ecdysone biosynthesis, ecdysone biosynthesi ...

In assay [2] the test system is ERK. Kind of assay: p-ERK level in cultured PGs (Western blot). It is filed as cell-based, Bombyx mori. The note with it: 15 min, immunoblotting. The procedure:
(§1) Dissected PGs were rinsed with Grace's insect culture medium (Gibco) and pre-cultured individually in 100 µl medium in 96-well plates (BD Falcon) at 25°C for 30 min. To evaluate the effect of extracellular Ca^2+ on ecdysone biosynthesis, lepidopteran saline and lepidopteran saline using NaCl as a replacement for CaCl2 were used. For the pharmacological analysis, the PG was pre-treated with the inhibitor for 15 min during the pre-culture period. Following this treatment, the PG was cultured in the desired conditions for the desired period (Ecdysone assay: 3 hours; cAMP assay: 30 min; and Protein phosphorylation assay: 15 min). […]
(§2) Dissected PGs were pre-cultured in Grace's culture medium for 30 min, then cultured with or without PDF or PTTH for 15 min. The cultured PGs were sonicated in 50 mM Tris-HCl (pH 6.8) with protease inhibitor cocktail (Complete, Roche) and phosphatase inhibitor cocktail (Wako), lysed in 1x SDS sample buffer excluding 2-mercaptoethanol (2ME) and bromophenol blue (BPB), and the protein concentration was measured using the BCA protein assay kit (Pierce). […]
(§3) Figure 4 Signaling pathways involved in PDF-induced ecdysone biosynthesis. […] The transcript levels of nvd, nm-g, spo, phm, dib and sad were quantified with Q-PCR. […] Statistically significant differences were evaluated by Student's t-test (***P<0.001, **P<0.01). […]
In general terms: A western blot detects proteins with antibodies after separation by electrophoresis.

Assay [3] has as its system 4E-BP. Kind of assay: p-4E-BP level in cultured PGs (Western blot). The class given is cell-based, Bombyx mori. The note with it: cultured PGs, 15 min; immunoblotting. Here is the method:
as §1, §2, §3

Assay [4] concerns PGs of B. mori. Kind of assay: Intracellular cAMP level in cultured PGs. It is filed as cell-based, Bombyx mori. The note with it: Ca2+-free lepidopteran saline, n = 4–8. The procedure:
as §1, with “min). Actinomycin D, H-89 and cycloheximide (CHX) were purchased from Sigma; Rapamycin was purchased from Santa Cruz Biotechnology; and LY294002 was purchased from Merck. H-89 was dissolved in water. The other inhibitors were dissolved in DMSO.” for “min).”
HEK293 cells were transfected with an empty mammalian expression vector (pME18S) or the full-length BNGR-B2 ORF inserted into the pME18S vector (BNGR-B2/pME18S) using Lipofectamine LTX with PLUS reagent (Invitrogen) according to the manufacturer's instructions. […] The luminescence was measured with a Wallac ARVO SX 1420 Multilabel Counter (PerkinElmer).
Figure 3 Prothoracicotropic activities of PDF in vitro. […] Statistically significant differences were evaluated by Student's t-test (***P<0.001, **P<0.01, *P<0.05).
A general note: Changes in cAMP serve as a functional read-out for many G protein-coupled receptors.

B1: PTTH: prothoracicotropic hormone, humoral pathway-mediated tropic hormone (protein, UniProt P17219 116-224, looked up)
Prothoracicotropic hormone: GNIQVENQAIPDPPCTCKYKKEIEDLGENSVPRFIETRNCNKTQQPTCRPPYICKESLYSITILKRRETKSQESLEIPNELKYRWVAESHPVSVACLCTRDYQLRYNNN
modifications: Prothoracicotropic hormone
Turning to B1, in assay [1], the “transcript level of ecdysone biosynthetic enzymes (literature)” value is “upregulated the transcript level of some ecdysone biosynthetic enzymes”; the “transcript levels of spo, dib and phm (literature)” value is “upregulated by PTTH”. For the same molecule, the “level of p-ERK” value in assay [2] was “upregulated”. In addition, the “level of p-4E-BP” value in assay [3] was “upregulated by both PDF and PTTH”. The “effect of Ca2+ depletion on induced upregulation of intracellular cAMP levels” value in assay [4] was “suppressed PTTH-induced upregulation of intracellular cAMP levels”.
